We go through twelve molecules from patent US20170088600A1 (published 2017).

Experiment [1] concerns the target T1, mouse TRAIL expressed on transiently transfected 293T cells (mouse, UniProt P50592 1-291).
T1 construct: whole, on cells; also called mTRAIL; mouse (m) TRAIL
T1 sequence (looked up): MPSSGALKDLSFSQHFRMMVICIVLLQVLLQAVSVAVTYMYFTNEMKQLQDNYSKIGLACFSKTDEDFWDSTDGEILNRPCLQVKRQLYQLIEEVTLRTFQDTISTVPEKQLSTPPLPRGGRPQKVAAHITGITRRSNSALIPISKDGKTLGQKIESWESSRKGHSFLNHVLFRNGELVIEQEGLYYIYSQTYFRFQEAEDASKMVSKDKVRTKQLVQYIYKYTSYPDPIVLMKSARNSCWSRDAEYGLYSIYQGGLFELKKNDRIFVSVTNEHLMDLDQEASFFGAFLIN
As to the kind of experiment: flow cytometry on 293T cells transfected with mouse TRAIL. (A flow cytometer gives signals particle by particle.)

The target in experiment [2] is T2, TRAIL (TNFSF10) ectodomain (UniProt P50591 39-281, limits assumed).
T2 construct: extracellular domain; also called endogenous TRAIL; TRAIL ectodomain
T2 sequence (P50591 39-281 limits assumed): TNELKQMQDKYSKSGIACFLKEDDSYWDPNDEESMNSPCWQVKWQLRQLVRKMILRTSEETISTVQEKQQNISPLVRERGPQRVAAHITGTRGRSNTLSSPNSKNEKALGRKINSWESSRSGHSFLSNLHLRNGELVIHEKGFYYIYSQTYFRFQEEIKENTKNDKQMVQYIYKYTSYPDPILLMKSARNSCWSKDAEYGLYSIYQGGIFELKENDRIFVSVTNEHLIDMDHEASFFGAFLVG
As to the kind of experiment: SPR, mutant TRAIL-R2-Fc captured, TRAIL as analyte. A general note: Surface plasmon resonance follows binding to a sensor surface in real time, without labels.

B1: mouse TRAIL-R2:Fc (extracellular domain of mouse TRAIL-R2 fused to human IgG constant domain) (Fc fusion, UniProt Q9QZM4 53-180, looked up)
chain: NPAHNRPAGLQRPEESPSRGPCLAGQYLSEGNCKPCREGIDYTSHSNHSLDSCILCTVCKEDKVVETRCNITTNTVCRCKPGTFEDKDSPEICQSCSNCTDGEEELTSCTPRENRKCVSKTAWASWHK
notes: extracellular domain; also called mTRAIL-R2:Fc; not shown: printed only as the human IgG VH constant domain; subclass, limits and linker no
Turning to B1, the binding result in experiment [1] is given as “binds”.

B2: TRAIL-R2-Fc K155A (Fc fusion, human, not shown: a dimerising Fc or GST)
chain: QQDLAPQQRAAPQQKRSSPSEGLCPPGHHISEDGRDCISCKYGQDYSTHWNDLLFCLRCTRCDSGEVELSPCTTTRNTVCQCEEGTFREEDSPEMCRACRTGCPRGMVKVGDCTPWSDIECVHKESGLVPRGS
notes: range 58-184
Usually Kd stands for the constant that tells how readily two partners part at equilibrium. A high value points to a looser complex. Broadly, the koff is the first-order rate constant of dissociation. A higher koff goes with a short-lived complex. As usually defined, the kon is the rate constant with which the complex forms. A higher kon goes with faster complex formation. For B2, in experiment [2], the Kd came out at 39.7 nM, the koff was determined as 0.000138 s⁻¹ and the association rate constant (kon) is 3480 M⁻¹ s⁻¹.

B3: TRAIL-R2-Fc P150A (Fc fusion, human, not shown: a dimerising Fc or GST)
chain: QQDLAPQQRAAPQQKRSSPSEGLCPPGHHISEDGRDCISCKYGQDYSTHWNDLLFCLRCTRCDSGEVELSPCTTTRNTVCQCEEGTFREEDSAEMCRKCRTGCPRGMVKVGDCTPWSDIECVHKESGLVPRGS
notes: range 58-184
In experiment [2], B3 registered a Kd of 4.29 nM, a koff of 9.02e-06 s⁻¹ and a kon of 2100 M⁻¹ s⁻¹.

B4: TRAIL-R2-Fc F112A (Fc fusion, human, not shown: a dimerising Fc or GST)
chain: QQDLAPQQRAAPQQKRSSPSEGLCPPGHHISEDGRDCISCKYGQDYSTHWNDLLACLRCTRCDSGEVELSPCTTTRNTVCQCEEGTFREEDSPEMCRKCRTGCPRGMVKVGDCTPWSDIECVHKESGLVPRGS
notes: range 58-184
In experiment [2], B4 came in with a Kd of 3.94 nM, a koff of 9.86e-06 s⁻¹ and an on-rate (kon) of 2500 M⁻¹ s⁻¹.

B5: TRAIL-R2-Fc M152A/R154A/K155A (Fc fusion, human, not shown: a dimerising Fc or GST)
chain: QQDLAPQQRAAPQQKRSSPSEGLCPPGHHISEDGRDCISCKYGQDYSTHWNDLLFCLRCTRCDSGEVELSPCTTTRNTVCQCEEGTFREEDSPEACAACRTGCPRGMVKVGDCTPWSDIECVHKESGLVPRGS
notes: range 58-184; also called M152/R154/K155
As to B5, in experiment [2], the binding result was “no binding”.

B6: TRAIL-R2-Fc D148A (Fc fusion, human, not shown: a dimerising Fc or GST)
chain: QQDLAPQQRAAPQQKRSSPSEGLCPPGHHISEDGRDCISCKYGQDYSTHWNDLLFCLRCTRCDSGEVELSPCTTTRNTVCQCEEGTFREEASPEMCRKCRTGCPRGMVKVGDCTPWSDIECVHKESGLVPRGS
notes: range 58-184
In experiment [2], B6 showed a Kd of 4.48 nM, a koff of 3.58e-05 s⁻¹ and an association rate constant (kon) of 8000 M⁻¹ s⁻¹.

B7: TRAIL-R2-Fc Y103A/R133A (Fc fusion, human, not shown: a dimerising Fc or GST)
chain: QQDLAPQQRAAPQQKRSSPSEGLCPPGHHISEDGRDCISCKYGQDASTHWNDLLFCLRCTRCDSGEVELSPCTTTANTVCQCEEGTFREEDSPEMCRKCRTGCPRGMVKVGDCTPWSDIECVHKESGLVPRGS
notes: range 58-184; also called Y103/R133
B7: the binding result in experiment [2] is “no binding”.

B8: TRAIL-R2-Fc M152A (Fc fusion, human, not shown: a dimerising Fc or GST)
chain: QQDLAPQQRAAPQQKRSSPSEGLCPPGHHISEDGRDCISCKYGQDYSTHWNDLLFCLRCTRCDSGEVELSPCTTTRNTVCQCEEGTFREEDSPEACRKCRTGCPRGMVKVGDCTPWSDIECVHKESGLVPRGS
notes: range 58-184
As for B8, in experiment [2], the Kd stood at 202 nM, the dissociation rate constant (koff) is 0.000678 s⁻¹ and the kon came to 3350 M⁻¹ s⁻¹.

B9: TRAIL-R2-Fc Y103A/N134A (Fc fusion, human, not shown: a dimerising Fc or GST)
chain: QQDLAPQQRAAPQQKRSSPSEGLCPPGHHISEDGRDCISCKYGQDASTHWNDLLFCLRCTRCDSGEVELSPCTTTRATVCQCEEGTFREEDSPEMCRKCRTGCPRGMVKVGDCTPWSDIECVHKESGLVPRGS
notes: range 58-184; also called Y103/N134
Take B9: the binding result in experiment [2] is reported as “no binding”.

B10: TRAIL-R2-Fc V167A (Fc fusion, human, not shown: a dimerising Fc or GST)
chain: QQDLAPQQRAAPQQKRSSPSEGLCPPGHHISEDGRDCISCKYGQDYSTHWNDLLFCLRCTRCDSGEVELSPCTTTRNTVCQCEEGTFREEDSPEMCRKCRTGCPRGMVKAGDCTPWSDIECVHKESGLVPRGS
notes: range 58-184
Regarding B10, in experiment [2], the Kd stood at 4.35 nM, the koff stood at 9.57e-06 s⁻¹ and the kon turned out to be 2200 M⁻¹ s⁻¹.

B11: TRAIL-R2-Fc E151A (Fc fusion, human, not shown: a dimerising Fc or GST)
chain: QQDLAPQQRAAPQQKRSSPSEGLCPPGHHISEDGRDCISCKYGQDYSTHWNDLLFCLRCTRCDSGEVELSPCTTTRNTVCQCEEGTFREEDSPAMCRKCRTGCPRGMVKVGDCTPWSDIECVHKESGLVPRGS
notes: range 58-184
In the case of B11, in experiment [2], the binding result is reported as “no binding (tested: up to 1 µM ligand)”.

B12: TRAIL-R2-Fc L110A/L114A (Fc fusion, human, not shown: a dimerising Fc or GST)
chain: QQDLAPQQRAAPQQKRSSPSEGLCPPGHHISEDGRDCISCKYGQDYSTHWNDALFCARCTRCDSGEVELSPCTTTRNTVCQCEEGTFREEDSPEMCRKCRTGCPRGMVKVGDCTPWSDIECVHKESGLVPRGS
notes: range 58-184; also called L110/L114
Consider B12, for which, in experiment [2], the binding result is on record as “no binding”.
